These results are taken from patent publication US10500249B2, “Compositions and methods for preventing or treating diseases, conditions, or processes characterized by aberrant fibroblast proliferation and extracellular matrix deposition” (MOERAE MATRIX, INC., priority 2014, dated 2019).

Common to all, as to test: Kinase Profiling Assay
Common to all, as to assay type: biochemical
Settings in all cases: 100 μM

One test deals with LIMK1 (h) (Homo sapiens, UniProt P53667). Put shortly: (§1)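 Each kinase activity was measured in duplicate. Phosphorylation of a positively charged substrate with radiolabeled phosphate from ATP was captured on a negatively charged filter, counted by scintillation and expressed relative to a 100% activity control. MK2 inhibitory peptides were screened for specificity across 266 human kinases.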
Sequence of LIMK1 (h) (P53667 whole entry): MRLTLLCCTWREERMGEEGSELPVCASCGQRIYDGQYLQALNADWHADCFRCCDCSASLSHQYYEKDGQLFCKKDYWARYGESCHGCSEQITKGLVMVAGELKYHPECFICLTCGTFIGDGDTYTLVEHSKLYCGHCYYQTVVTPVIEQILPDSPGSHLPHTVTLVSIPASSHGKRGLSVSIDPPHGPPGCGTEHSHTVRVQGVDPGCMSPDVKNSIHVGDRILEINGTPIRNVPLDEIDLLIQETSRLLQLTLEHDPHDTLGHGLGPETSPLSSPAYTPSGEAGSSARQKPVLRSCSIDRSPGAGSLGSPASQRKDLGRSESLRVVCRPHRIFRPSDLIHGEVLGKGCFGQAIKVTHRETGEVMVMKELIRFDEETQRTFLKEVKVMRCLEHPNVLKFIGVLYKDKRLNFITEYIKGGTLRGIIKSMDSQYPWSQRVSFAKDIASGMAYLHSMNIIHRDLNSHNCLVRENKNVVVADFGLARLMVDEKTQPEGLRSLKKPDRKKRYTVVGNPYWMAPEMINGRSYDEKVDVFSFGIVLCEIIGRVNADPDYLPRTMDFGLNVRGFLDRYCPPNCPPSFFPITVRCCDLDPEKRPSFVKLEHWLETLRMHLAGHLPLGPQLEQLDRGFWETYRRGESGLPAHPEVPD

A further test deals with Lyn (h) (Homo sapiens, UniProt P07948). Put shortly: as §1
Sequence of Lyn (h) (P07948 whole entry): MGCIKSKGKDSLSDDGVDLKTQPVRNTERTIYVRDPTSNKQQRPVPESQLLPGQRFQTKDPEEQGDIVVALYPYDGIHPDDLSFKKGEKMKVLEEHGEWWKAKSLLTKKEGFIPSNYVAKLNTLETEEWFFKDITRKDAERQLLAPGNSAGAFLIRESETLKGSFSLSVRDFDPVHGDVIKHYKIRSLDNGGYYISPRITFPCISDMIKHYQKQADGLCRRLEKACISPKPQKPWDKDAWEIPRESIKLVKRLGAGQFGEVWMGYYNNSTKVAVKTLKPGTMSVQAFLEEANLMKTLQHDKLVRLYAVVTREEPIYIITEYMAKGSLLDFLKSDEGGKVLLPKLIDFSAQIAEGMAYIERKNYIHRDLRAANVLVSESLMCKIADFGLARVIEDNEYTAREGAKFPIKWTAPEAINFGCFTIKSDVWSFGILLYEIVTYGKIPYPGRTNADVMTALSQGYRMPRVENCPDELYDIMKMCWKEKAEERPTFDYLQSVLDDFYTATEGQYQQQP
A further test deals with Met(D1246N) (h) (Homo sapiens, UniProt P08581, D1228N). The method in brief:
as §1

The target of the next test is Arg (h) (Homo sapiens, UniProt P42684). The method in brief: as §1
Sequence of Arg (h) (P42684 whole entry): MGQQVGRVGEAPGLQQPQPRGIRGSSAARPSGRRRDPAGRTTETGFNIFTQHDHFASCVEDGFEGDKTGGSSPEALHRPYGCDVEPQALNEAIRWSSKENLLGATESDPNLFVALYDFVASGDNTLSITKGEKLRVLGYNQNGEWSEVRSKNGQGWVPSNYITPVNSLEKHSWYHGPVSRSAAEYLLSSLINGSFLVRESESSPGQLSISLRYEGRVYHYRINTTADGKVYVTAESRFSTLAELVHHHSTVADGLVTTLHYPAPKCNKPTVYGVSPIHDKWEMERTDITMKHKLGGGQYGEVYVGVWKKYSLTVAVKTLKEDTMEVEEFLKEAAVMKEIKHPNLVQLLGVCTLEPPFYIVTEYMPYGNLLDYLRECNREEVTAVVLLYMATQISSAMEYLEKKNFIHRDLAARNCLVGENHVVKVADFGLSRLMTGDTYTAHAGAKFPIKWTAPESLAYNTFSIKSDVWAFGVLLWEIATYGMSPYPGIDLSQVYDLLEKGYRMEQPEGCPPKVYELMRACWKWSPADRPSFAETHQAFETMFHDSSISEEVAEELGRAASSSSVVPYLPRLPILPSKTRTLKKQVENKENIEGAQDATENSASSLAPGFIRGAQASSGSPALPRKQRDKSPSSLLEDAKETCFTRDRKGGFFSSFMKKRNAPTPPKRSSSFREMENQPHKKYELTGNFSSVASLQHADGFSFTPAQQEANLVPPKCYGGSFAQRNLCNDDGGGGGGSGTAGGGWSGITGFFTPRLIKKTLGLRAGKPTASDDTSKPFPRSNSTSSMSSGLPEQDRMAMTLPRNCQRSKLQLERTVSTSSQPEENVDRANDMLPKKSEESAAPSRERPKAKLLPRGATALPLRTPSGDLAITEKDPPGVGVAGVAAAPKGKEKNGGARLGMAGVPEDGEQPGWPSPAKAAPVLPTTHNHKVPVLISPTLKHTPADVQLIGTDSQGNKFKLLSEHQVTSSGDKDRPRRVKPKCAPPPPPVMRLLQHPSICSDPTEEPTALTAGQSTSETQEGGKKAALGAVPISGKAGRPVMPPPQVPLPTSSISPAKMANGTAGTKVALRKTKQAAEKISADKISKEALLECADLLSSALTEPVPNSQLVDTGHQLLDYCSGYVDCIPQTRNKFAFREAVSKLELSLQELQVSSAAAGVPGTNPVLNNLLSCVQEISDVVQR
In the next test the target is T1, BrSK1 (h) (Homo sapiens, UniProt Q8TDC3).
T1 sequence (Q8TDC3 1-778): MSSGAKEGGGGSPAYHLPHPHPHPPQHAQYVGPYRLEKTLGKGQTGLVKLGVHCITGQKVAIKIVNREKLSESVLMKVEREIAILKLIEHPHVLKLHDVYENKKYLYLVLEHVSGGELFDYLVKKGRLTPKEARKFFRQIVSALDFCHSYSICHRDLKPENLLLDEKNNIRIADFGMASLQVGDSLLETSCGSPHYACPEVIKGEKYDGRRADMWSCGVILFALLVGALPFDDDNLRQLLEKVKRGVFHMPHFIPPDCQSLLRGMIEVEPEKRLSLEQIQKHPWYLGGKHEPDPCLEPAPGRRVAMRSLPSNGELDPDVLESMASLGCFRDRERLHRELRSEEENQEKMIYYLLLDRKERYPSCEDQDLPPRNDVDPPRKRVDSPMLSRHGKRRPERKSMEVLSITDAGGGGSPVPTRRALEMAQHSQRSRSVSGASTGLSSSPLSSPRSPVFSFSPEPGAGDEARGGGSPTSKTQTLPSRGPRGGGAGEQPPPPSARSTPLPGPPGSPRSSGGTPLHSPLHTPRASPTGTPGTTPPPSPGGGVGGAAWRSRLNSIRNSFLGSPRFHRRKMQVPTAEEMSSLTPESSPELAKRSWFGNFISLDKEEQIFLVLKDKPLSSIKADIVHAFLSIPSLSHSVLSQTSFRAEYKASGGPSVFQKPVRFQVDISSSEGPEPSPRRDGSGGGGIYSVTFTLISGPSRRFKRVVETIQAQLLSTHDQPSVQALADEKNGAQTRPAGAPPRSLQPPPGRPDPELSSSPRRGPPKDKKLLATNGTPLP
The method in brief: as §1

Another test concerns the target T2, PKCβII (h) (Homo sapiens, UniProt P05771).
T2 construct: purchased Millipore
The method in brief:
as §1

The target of another test is T3, mTOR (h) (Homo sapiens, UniProt P42345).
T3 construct: purchased Millipore
Put shortly: as §1

In the next test the target is T4, CDK6/cyclinD3 (h) (Homo sapiens, UniProt Q00534).
T4 construct: purchased Millipore
T4 sequence (Q00534 whole entry): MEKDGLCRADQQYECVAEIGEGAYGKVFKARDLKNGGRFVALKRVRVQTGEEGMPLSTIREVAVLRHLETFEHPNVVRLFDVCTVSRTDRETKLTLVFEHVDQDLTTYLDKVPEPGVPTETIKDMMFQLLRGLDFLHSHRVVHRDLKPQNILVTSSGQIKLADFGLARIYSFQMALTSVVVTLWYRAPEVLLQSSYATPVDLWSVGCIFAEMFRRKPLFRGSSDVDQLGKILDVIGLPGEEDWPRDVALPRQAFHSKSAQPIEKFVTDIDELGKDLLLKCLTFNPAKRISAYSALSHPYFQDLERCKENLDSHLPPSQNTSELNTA
T4 sequence (P30281 whole entry partner): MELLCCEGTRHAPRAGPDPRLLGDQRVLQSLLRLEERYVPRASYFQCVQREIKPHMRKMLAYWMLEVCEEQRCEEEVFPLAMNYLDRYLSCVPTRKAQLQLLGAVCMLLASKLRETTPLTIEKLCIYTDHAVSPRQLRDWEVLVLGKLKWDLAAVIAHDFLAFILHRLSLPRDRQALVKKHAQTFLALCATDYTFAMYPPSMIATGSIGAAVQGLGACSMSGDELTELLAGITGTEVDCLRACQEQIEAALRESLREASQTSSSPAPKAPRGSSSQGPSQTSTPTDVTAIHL
Put shortly:
as §1

A further test deals with T5, PKCα (h) (Homo sapiens, UniProt P17252).
T5 construct: purchased Millipore
Put shortly: as §1

Another test has as its target T6, LKB1 (h) (Homo sapiens, UniProt Q15831).
T6 sequence (Q15831 1-433): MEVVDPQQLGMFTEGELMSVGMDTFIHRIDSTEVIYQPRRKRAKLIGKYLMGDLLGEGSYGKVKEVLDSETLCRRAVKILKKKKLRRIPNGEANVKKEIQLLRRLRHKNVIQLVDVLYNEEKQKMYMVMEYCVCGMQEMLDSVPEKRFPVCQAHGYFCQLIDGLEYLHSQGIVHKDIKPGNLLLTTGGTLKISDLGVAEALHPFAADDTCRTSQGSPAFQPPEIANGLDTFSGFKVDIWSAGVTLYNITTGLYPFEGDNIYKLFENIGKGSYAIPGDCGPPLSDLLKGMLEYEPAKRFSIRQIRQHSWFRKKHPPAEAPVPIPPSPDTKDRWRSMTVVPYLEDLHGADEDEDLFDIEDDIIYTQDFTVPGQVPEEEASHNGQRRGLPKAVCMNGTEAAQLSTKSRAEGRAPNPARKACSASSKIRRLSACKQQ
T6 sequence (Q7RTN6 1-431 partner): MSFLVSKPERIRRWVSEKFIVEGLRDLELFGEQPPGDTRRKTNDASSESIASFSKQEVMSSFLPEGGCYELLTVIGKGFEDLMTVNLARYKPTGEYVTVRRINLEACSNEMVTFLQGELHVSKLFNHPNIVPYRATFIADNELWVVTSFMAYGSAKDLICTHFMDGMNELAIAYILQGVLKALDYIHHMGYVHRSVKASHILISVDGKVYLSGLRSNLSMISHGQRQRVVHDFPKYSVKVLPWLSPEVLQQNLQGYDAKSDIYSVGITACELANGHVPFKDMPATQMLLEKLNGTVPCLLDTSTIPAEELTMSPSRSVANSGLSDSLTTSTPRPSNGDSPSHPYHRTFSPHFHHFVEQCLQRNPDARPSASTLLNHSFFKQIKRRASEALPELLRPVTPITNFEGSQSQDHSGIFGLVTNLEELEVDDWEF
T6 sequence (Q9Y376 1-341 partner): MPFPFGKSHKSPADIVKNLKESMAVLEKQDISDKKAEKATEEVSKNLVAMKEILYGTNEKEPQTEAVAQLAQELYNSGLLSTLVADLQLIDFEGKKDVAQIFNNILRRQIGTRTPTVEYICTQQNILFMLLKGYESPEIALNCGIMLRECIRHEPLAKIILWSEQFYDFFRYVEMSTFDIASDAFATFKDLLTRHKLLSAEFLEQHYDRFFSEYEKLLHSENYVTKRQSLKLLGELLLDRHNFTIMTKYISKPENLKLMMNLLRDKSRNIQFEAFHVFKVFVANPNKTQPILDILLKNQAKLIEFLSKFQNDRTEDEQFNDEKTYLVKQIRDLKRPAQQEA
Put shortly:
as §1

For another test, the target named is SRPK2 (h) (Homo sapiens, UniProt P78362). The method in brief: as §1
Sequence of SRPK2 (h) (P78362 whole entry): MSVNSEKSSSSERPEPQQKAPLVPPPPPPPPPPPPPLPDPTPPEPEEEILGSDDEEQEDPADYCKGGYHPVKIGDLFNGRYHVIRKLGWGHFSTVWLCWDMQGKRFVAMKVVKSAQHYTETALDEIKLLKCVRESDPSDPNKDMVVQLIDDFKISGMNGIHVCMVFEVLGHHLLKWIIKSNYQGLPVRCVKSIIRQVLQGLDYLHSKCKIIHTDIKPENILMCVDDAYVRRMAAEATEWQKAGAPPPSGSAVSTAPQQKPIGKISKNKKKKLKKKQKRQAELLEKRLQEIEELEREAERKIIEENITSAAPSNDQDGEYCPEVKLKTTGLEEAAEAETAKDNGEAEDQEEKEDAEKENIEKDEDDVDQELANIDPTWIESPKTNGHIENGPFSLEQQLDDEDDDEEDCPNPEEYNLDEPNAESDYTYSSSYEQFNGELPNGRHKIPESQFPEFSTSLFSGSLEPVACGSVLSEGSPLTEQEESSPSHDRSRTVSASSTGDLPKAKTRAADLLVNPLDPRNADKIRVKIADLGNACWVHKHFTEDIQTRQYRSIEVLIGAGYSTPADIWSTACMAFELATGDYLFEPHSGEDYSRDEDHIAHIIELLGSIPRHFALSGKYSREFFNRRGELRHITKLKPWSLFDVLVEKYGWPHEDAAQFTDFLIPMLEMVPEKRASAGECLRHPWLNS

T2 sequence (P05771 1-673 isoform P05771-2): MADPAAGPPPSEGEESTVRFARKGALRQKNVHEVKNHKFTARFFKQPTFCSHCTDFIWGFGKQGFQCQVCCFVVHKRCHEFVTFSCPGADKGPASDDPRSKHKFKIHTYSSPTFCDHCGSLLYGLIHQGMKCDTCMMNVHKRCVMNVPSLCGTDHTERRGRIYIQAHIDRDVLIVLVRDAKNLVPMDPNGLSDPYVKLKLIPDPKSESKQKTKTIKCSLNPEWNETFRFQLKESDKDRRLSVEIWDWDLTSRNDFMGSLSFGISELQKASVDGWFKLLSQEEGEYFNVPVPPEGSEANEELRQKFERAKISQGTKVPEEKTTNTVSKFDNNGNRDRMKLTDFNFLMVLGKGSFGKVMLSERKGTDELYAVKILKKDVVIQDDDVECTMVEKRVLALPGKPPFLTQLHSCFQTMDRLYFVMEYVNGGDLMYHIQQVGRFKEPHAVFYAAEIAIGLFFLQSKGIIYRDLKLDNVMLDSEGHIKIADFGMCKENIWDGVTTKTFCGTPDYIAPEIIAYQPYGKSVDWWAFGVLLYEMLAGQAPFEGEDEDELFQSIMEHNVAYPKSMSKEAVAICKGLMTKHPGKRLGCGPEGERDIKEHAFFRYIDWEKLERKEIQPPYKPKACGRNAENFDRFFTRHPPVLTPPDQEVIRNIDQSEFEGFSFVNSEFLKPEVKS

Turning to FAKLAARLYRKALARQLGVAA [MMI-0300], the “% activity” value with LIMK1 (h) amounted to 88%; with Lyn (h) it was 69%; with Met(D1246N) (h), 82%; with Arg (h), 72%; with BrSK1 (h), 67%; with PKCβII (h), 82%. Further, the “% activity” value with mTOR (h) amounted to 91%; with CDK6/cyclinD3 (h) it was 86%; with PKCα (h) it was 89%; in the test with LKB1 (h), 101%.

Take “HRRIKAWLKKIKALARQLGVAA (Mammalian) [MMI-0500]”: the “% activity” value with LIMK1 (h) is listed as 87%; in the test with Lyn (h), 31%; in the test with Met(D1246N) (h), 90%; with SRPK2 (h) it was 80%; with Arg (h), 22%; with BrSK1 (h), 72%. Further, the “% activity” value is 3% with PKCβII (h); 135% in the test with mTOR (h); 23% in the test with CDK6/cyclinD3 (h); 3% in the test with PKCα (h); 51% in the test with LKB1 (h).

“YARAAARQARAKALNRQLGVA (Mammalian) [MMI-0200]”: the “% activity” value with Lyn (h) is recorded as 98%; with Met(D1246N) (h), 149%; with SRPK2 (h), 100%; with Arg (h), 82%; in the test with BrSK1 (h) it was 93%; with PKCβII (h), 100%. The “% activity” value was 110% with mTOR (h), 100% with CDK6/cyclinD3 (h), 100% with PKCα (h) and 99% in the test with LKB1 (h).

As for KAFAKLAARLYRKALARQLGVAA [MMI-0400], the “% activity” value in the test with LIMK1 (h) amounted to 92%; with Lyn (h) it was 3%; with Met(D1246N) (h), 31%; in the test with SRPK2 (h) it was 97%; with Arg (h), 84%; with BrSK1 (h), 76%. The “% activity” value with PKCβII (h) is reported as 75%; with mTOR (h), 93%; in the test with CDK6/cyclinD3 (h), 85%; with PKCα (h), 86%; with LKB1 (h), 89%.
